Test results reported in the supplement of paper PMC7877785.
± gives the uncertainty stated by the source.

Assay: self-splicing fitness, log relative to wild type (ln ratio); higher = more splicing; Tetrahymena group I intron in knt gene, E. coli kanamycin selection, DiMSum; sequences stand for … in CUCUCU…GGAGGGAAAAGUUAUCAGGCAUGCACCUGGUAGCUAGUCUUUAAACCAAUAGAUUGCAUCGGUUUAAAAGGCAAGACCGUCAAAUUGCGGGAAAGGGGUCAACAGCCGUUCAGUACCAAGUCUCAGGGGAAACUUUGAGAUGGCCUUGCAAAGGGUAUGGUAAUAAGCUGACGGACAUGGUCCUAACCACGCAGCCAAGUCCUAAGUCAACAGAUCUUCUGUUGAUAUGGAUGCAGUUCACAGACUAAAUGUCGGUCGGGGAAGAUGUAUUCUUCUCAUAAGAUAUAGUCGGACCUCUCCUUAAUGGGAGCUAGCGGAUGAAGUGAUGCAACACUGGAGCCGCUGGGAACUAAUUUGUAUGCGAAAGUAUAUUGAUUAGUUUUGGAGUACUCGUGGUCG
Procedure, shortened: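 Colonies from six replicate transformations of E. coli BL21(DE3) were pooled and amplicon-sequenced on an Illumina HiSeq 2500. The library placed an intron with all eight P1ex-region nucleotides randomised inside the knt kanamycin-resistance gene on pET-22b(+), and cells grew overnight at 37°C or 30°C on LB agar with or without 25 μg/mL kanamycin (plus 100 μg/mL carbenicillin, 50 μM IPTG, 0.2% rhamnose). Fitness is the DiMSum error-weighted combination of wild-type-normalised replicate fold changes, kanamycin versus none.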

Sequence | self-splicing fitness (ln) (30 °C) | self-splicing fitness (ln) (37 °C)
UUUCAGCAAUAUUACGUGUG | -0.986 ± 0.067 | -0.142 ± 0.075
CCUAAGCAAUAUUACGCUAC | – | -1.53 ± 0.31
UUCGAGCAAUAUUACGAAAG | -2.66 ± 0.36 | –
GACUAGCAAUAUUACGGCCU | -1 ± 0.11 | -0.85 ± 0.16
ACCCAGCAAUAUUACGCACG | -1.86 ± 0.067 | -1.01 ± 0.084
UCGAAGCAAUAUUACGUUCG | -1.54 ± 0.12 | -0.659 ± 0.19
ACAGAGCAAUAUUACGAUGG | -3.24 ± 0.14 | -3.32 ± 0.23
AGGUAGCAAUAUUACGAGGU | -3.749 ± 0.029 | -2.49 ± 0.039
AUGUAGCAAUAUUACGCCUC | -2.83 ± 0.41 | -1.61 ± 0.32
GUCAAGCAAUAUUACGGCUG | -4 ± 0.3 | –
CCUCAGCAAUAUUACGACUU | -3.69 ± 0.42 | -2.43 ± 0.26
CUUAAGCAAUAUUACGCUCA | -2.78 ± 0.22 | -2.01 ± 0.5
UUUAAGCAAUAUUACGGUCG | -0.794 ± 0.067 | -0.269 ± 0.089
UGUCAGCAAUAUUACGCUUC | – | -1.76 ± 0.21
CCUGAGCAAUAUUACGCUAU | -3.66 ± 0.2 | -3.09 ± 0.19
CCCCAGCAAUAUUACGCAUG | -3.67 ± 0.17 | -2.75 ± 0.16
AAUCAGCAAUAUUACGAAAC | -1.97 ± 0.19 | -0.858 ± 0.16
GAUCAGCAAUAUUACGGUCG | -1.42 ± 0.092 | -0.484 ± 0.088
GGGAAGCAAUAUUACGUGUU | -3.17 ± 0.21 | -1.9 ± 0.16
ACCCAGCAAUAUUACGUGGC | -2.83 ± 0.13 | -1.69 ± 0.11
GGUGAGCAAUAUUACGGAAU | -2.53 ± 0.39 | 0.428 ± 0.28
CGACAGCAAUAUUACGCGCA | -1.17 ± 0.13 | -0.0102 ± 0.12

Sequence | self-splicing fitness (ln) (30 °C) | self-splicing fitness (ln) (37 °C)
GACCAGCAAUAUUACGCAGU | -1.56 ± 0.067 | -0.904 ± 0.09
AAGCAGCAAUAUUACGAAGU | -3.3 ± 0.13 | -1.34 ± 0.13
CCGAAGCAAUAUUACGUUAG | -1.97 ± 0.093 | -0.908 ± 0.082
UGAGAGCAAUAUUACGAACG | -1.02 ± 0.18 | -1.43 ± 0.33
GCUUAGCAAUAUUACGGUAA | -2.18 ± 0.14 | -1.54 ± 0.13
CGCUAGCAAUAUUACGACGC | – | -1.92 ± 0.17
GGUGAGCAAUAUUACGACUG | -0.488 ± 0.11 | 0.309 ± 0.13
UCAUAGCAAUAUUACGAAUA | -2.82 ± 0.28 | -1.04 ± 0.28
AGGAAGCAAUAUUACGUACA | -1.08 ± 0.065 | -0.404 ± 0.088
CUACAGCAAUAUUACGUCGG | -1.98 ± 0.066 | -0.736 ± 0.079
AUUUAGCAAUAUUACGUACC | -0.819 ± 0.45 | -1.04 ± 0.31
UGCUAGCAAUAUUACGUGUU | -3.87 ± 0.16 | -2.21 ± 0.12
GCUUAGCAAUAUUACGCGAA | -2.55 ± 0.11 | -1.98 ± 0.11
GCUAAGCAAUAUUACGAGAU | -2.3 ± 0.12 | -1.51 ± 0.14
CAGAAGCAAUAUUACGCUUC | – | -3.54 ± 0.4
AUGCAGCAAUAUUACGCAGU | -3.23 ± 0.16 | -1.69 ± 0.12
GAUAAGCAAUAUUACGAAAG | -2.76 ± 0.18 | -1.66 ± 0.21
GUGUAGCAAUAUUACGAAAC | -3.2 ± 0.41 | -1.89 ± 0.34
GUGCAGCAAUAUUACGUGCA | -3.19 ± 0.15 | -2.41 ± 0.17
CCCGAGCAAUAUUACGUGGU | -4.96 ± 0.34 | -2.59 ± 0.19
CGAAAGCAAUAUUACGGGCU | -2.74 ± 0.14 | -1.55 ± 0.17
UCCGAGCAAUAUUACGUGUG | -3.13 ± 0.11 | -0.996 ± 0.088

Sequence | self-splicing fitness (ln) (30 °C) | self-splicing fitness (ln) (37 °C)
ACGAAGCAAUAUUACGGGUA | -1.72 ± 0.25 | -2.08 ± 0.17
CAGAAGCAAUAUUACGGCUU | -3.46 ± 0.21 | -3.66 ± 0.29
GUGUAGCAAUAUUACGUGAG | -1.23 ± 0.095 | -0.931 ± 0.093
GAACAGCAAUAUUACGCGCG | -0.924 ± 0.064 | -0.265 ± 0.085
UGUAAGCAAUAUUACGGAAU | – | -2.49 ± 0.26
UUUGAGCAAUAUUACGUUCC | -3.99 ± 0.39 | –
UCCCAGCAAUAUUACGCGGC | – | -0.462 ± 0.4
CAGCAGCAAUAUUACGAUGU | -4.21 ± 0.22 | -2.6 ± 0.15
CAUAAGCAAUAUUACGGCCC | -3.92 ± 0.4 | –
UAGCAGCAAUAUUACGUGGC | -4.18 ± 0.26 | -2.12 ± 0.21
UGUUAGCAAUAUUACGACGC | -1.59 ± 0.2 | -1.47 ± 0.32
AUUUAGCAAUAUUACGCGCG | -1.28 ± 0.2 | -0.257 ± 0.22
GUACAGCAAUAUUACGAUGG | -3.3 ± 0.17 | -2.48 ± 0.17
UACUAGCAAUAUUACGCCGU | -2.24 ± 0.25 | -2.67 ± 0.48
CUGGAGCAAUAUUACGCUAG | – | -2.79 ± 0.36
GAGUAGCAAUAUUACGCCUU | -3.2 ± 0.23 | -0.976 ± 0.24
AUCCAGCAAUAUUACGUACG | -1.7 ± 0.11 | -0.813 ± 0.19
ACGUAGCAAUAUUACGGUCA | -0.681 ± 0.16 | 0.577 ± 0.17
UGACAGCAAUAUUACGUGGG | -3.76 ± 0.14 | -0.757 ± 0.081
AUCCAGCAAUAUUACGUGGU | -3.14 ± 0.12 | -2.9 ± 0.15
